Measured values reported in US20200023081A1, “SELF-ASSEMBLING CYCLOPEPTIDE-DYE COMPOUNDS, FORMULATIONS THEREOF, AND USES THEREOF” (The Board of Trustees of the Leland Stanford Junior …, priority 2018, published 2020).
Values joined by “and” are separate entries in the source; they are usually repeats but may differ in a detail not shown here. Equal values may be shown once.

Key:
U87MG tumor [1] = test: Double subcutaneous U87MG tumor imaging; type: in vivo, nude mice; conditions: IV 10 nmol
Method: FIG. 5A is a color photograph of a nude mouse with double xenograft brain tumor (U87MG) located on the left (approximately 1 mm) and right ([…]) shoulder. Intravenous injection of CH-RGD 10 nmol into the double tumor nude mice (n=3). NIR-II imaging (50 ms, 1000LP) at 3 days post-injection was taken at prone (FIG. 5B), right (FIG. 5C) and left (FIG. 5D) lateral decubitus.
The first right shoulder big tumor implantation is the same as above description. The difference is allowed the tumor grow for 2 to 3 weeks. When the right tumor diameter (ø) was between about 1 to 2 mm, 1×10^6 U87MG cells were injected into the mice left shoulder. After about 1 to 2 weeks, when the left shoulder tumor had grown to a diameter of about 1 mm and the right shoulder tumor was approximately 6 mm in diameter, the mouse was used for imaging.
(§1) Images were processed with ImageJ.

[2] = tested on: metastatic tail bone tumor (143B); test: Metastatic 143B bone tumor imaging; type: in vivo, mice; conditions: ID injection into left hind limb
Method: When the orthotopic 143B tumor grows to 3-4 mm diameter, surgery was performed to resect the tumor. Tumor was cut into pieces, and the visible tumor fragments were taken out. Then the surgical wound was sutured. Although the metastasis was not frequently occurring in mice tail, mice tail metastasis is the easiest diagnostic metastasis. By visual inspection, 143B tail metastasis mouse was chosen out. The mouse was used for imaging experiment when the tumor size reach to approximately 1 mm diameter.

[3] = In vitro serum stability in FBS; type: in vitro ADME; conditions: 37° C.
Method: Fetal Bovine Serum (FBS, Gibco® Catalog #26140) was used to dilute the CH-RGD PBS stock solution into 2 mL, 10 μM mixture solution. And the mixture was incubated at 37° C. in a cell culture incubator for one month. At each designated time point, 200 μL serum mixture were collected for DLS and TEM analysis.

[4] = tested on: orthotopic bone tumors (143B); test: Orthotopic 143B osteosarcoma imaging; type: in vivo, nude mice; conditions: ID injection
Method: Eight-week old female nude mice (Charles River) were anaesthetized using 2.0% isoflurane and positioned on a heating pad (42° C.). The shoulder was cleaned with 70% ethanol and betadine. 1×10^6 143B cells were first injected subcutaneously into the shoulder mice and the tumor allowed to grow to a diameter 5-8 mm solid tumor. The tumors were surgical resected and cut into 1×1×1 mm^3 pieces.
The right tibia of 8-week old NU/NU mice was opened in the central part by drilling with a dental drill for a 0.5 mm diameter hole. One tumor fragment was insert into the hole and contact with the bone marrow. Then the surgical wound was sutured. Mice were observed daily for tumor growth. Palpation, micro CT and 3T MRI were used to monitor the tumor growth. The mouse was used for imaging experiment, when the tumor size had reached to 3-5 mm diameter.

bone = type: in vivo, BALB/c mice
Method: FIG. 3A illustrates a supine position, top CH-RGD, bottom CH-RAD 3 h post-injection. 22 nmol CH-RGD or CH-RAD was intravenously injected into 20-25 g hairless BALB/c mice (n=6, 3 males, 3 female). NIR-II imaging (200 ms, 1150LP, 808 nm 140 mW/cm^2 laser excitation) was taken at different time points post-injection (post-injection).
(§2) Teen-week old BALB/c mice (n=3 male and 3 female per group) were obtained from Charles River for bone imaging studies, teen-week old C57BL/6 female mice (n=4 per group) were obtained from Charles River for brain vessel studies, teen-week old NU/NU female mice (n=4 per group) were obtained from Charles River for leg vessel studies, teen-week old BALB/c male mice (n=4 per group) were obtained from Charles River and housed for another 42 weeks for lymph node and lymphatic vessel studies, eight-week old female NU/NU mice (n=3 per group) were obtained from Charles River for tumor targeting studies. Before vessel or tumor imaging, all mice were anaesthetized in a rodent anesthesia machine with 2 l min^−1 O2 gas mixed with 3% Isoflurane. Tail vein injection of contrast agents were carried with a catheter and synchronized with a camera that started continuous image acquisition simultaneously. The IV injected dose was a 200 μL bolus in a 1×PBS solution at specified concentrations. The ID injected dose was a 50 μL bolus in a 1×PBS solution at specified concentrations. During the time course of imaging the mouse was kept anaesthetized by a nose cone delivering 2 l min^−1 02 gas mixed with 3% isoflurane. The sample sizes of mice were selected based on previously reported studies. Mice were randomly selected from cages for all experiments. No blinding was performed.
as §1

[5] = Liver signal decay after IV injection; type: in vivo, BALB/c mice; conditions: BALB/c, mouse, IV 10 nmol, read-out: elimination half-life from liver signal decay curve (converted)
Source text: IV inject 10 nmol CH-RGD NPs into BALB/c mice (n=5). NIR-II fluorescent imaging (10001p, 200 ms) of mice in a supine position were taken 1, 2, 3, 4, 8, 12, 32, 60 days (d) post injection. Of 5 mice, 4 gave the strongest signal 2 days post-injection. One mouse gave it 1 day post-injection. Each liver signal was normalized with the 2 days post-injection intensity. GraphPad Prism 6 one phase decay analysis was used to get the half-life approximately 7.65 d.

[6] = Blood half-life measurement by NIR-II blood signal; type: in vivo; conditions: mouse, BALB/c mice
Method: Arrows indicate the blood vessel signal.
Half-life: approximately 776 min.

[7] = Photostability under continuous 808 nm laser excitation; type: physicochemical; conditions: 45 min continuous laser excitation (0.33 W/cm^2, 808 nm) in water, pH 7.4 PBS, FBS
Source text: The NIR fluorescence spectrum was taken using a home-built NIR spectroscopy setup. The excitation source was a 0.25 W 808 nm laser. The excitation laser was filtered with a combination of an 850/1,000/1,100/1,200/1,300 nm short-pass filters (Thorlabs). The excitation light was allowed to pass through the solution sample in a 1-cm-path-length cuvette (Starna Cells) and the resulting emission filtered through a 900 nm long-pass filter (Thorlabs) to reject the incident excitation laser light. The emitted light was directed into a spectrometer (Princeton Instruments, IsoPlane 160) equipped with a two-dimensional InGaAs array (Princeton Instruments, NIRvana TE 640). Spectra were corrected post-collection to account for the sensitivity of the detector and extinction feature of the filter. Photostability was determined by spiking CH-RGD NPs into FBS, 1× pH 7.4 PBS and DI water, and exposing it in a 1-cm-path-length cuvette (Starna Cells) to continuous 808 nm excitation at a power density of 0.33 W cm^−2 and taking images every 5 mins for approximately 45 min. Stability was determined by measuring the ROI and comparing the fluorescence intensity against the starting fluorescence signal.

NIH/3T3 cells = test: MTT cytotoxicity of CH-RGD NPs; type: cell-based
Method: The CH-RGD NPs toxicity was determined in vitro with a MTT assay (3-(4,5-dimethylthiazol-2-yl)-2,5-diphenyl tetrazolium bromide, Sigma-Aldrich, St. Louis, Mo.) on NIH/3T3 cells. Approximately 5,000 cells were incubated per well with 200 μL of DMEM growth medium and serially diluted CH-RGD NPs solution (n=6 for each concentration). The cells were kept at 37° C. in a humidified atmosphere containing 5% CO2 for 48 h in the presence of CH-RGD NPs at different concentrations. Immediately before addition of 20 μl of MTT (5 mg/mL), a colorimetric indicator of cell viability, the CH-RGD NPs-spiked medium was removed from each well plate and replaced with 180 μL fresh medium. After 4 h, the medium was carefully removed, 100 μL DMSO was added. Shaking for 10 mins, the color change was quantified using a microplate reader (TECAN Infinite M100) and taking absorbance readings at 570 nm with a reference wavelength of 650 nm. Cell viability was plotted as a fraction of the absorbance of control wells incubated without CH-RGD NPs.

[8] = literature value; cited from earlier work
blood vessels = test: Blood vessel imaging (brain, hind limb); type: in vivo, mice; conditions: NIR-I imaging
Method: FIGS. 4A-4W show blood vessel, lymphatic vessel, and lymph node imaging with CH-RGD (NIR-II), ICG and IR800-RGD (NIR-I). 15 nmol CH-RGD, CH-PEG, ICG, IR800-RGD were IV injected into hairless C57BL/6 mice (FIGS. 4A-4C) or nude mice (FIGS. 4D and 4E). NIR-II (FIGS. 4A, 4B, 4D, 1000 ms, 1350LP) and NIR-I imaging (FIGS. 4C, 4E, 200 ms, 814-851BP) was taken 10 min post-injection. FIGS. 4A-4C, C57BL/6 mice brain vessel images.
as §2, with “The IV injected dose was a 200 μL bolus in a 1×PBS solution at specified concentrations. The ID injected dose was a 50 μL bolus in a 1×PBS solution at specified concentrations. During the time course of imaging the mouse was kept anaesthetized by a nose cone delivering 2 l min^−1 02 gas mixed with 3% isoflurane. The sample sizes of mice were selected based on previously reported studies. Mice were randomly selected from cages for all experiments. No blinding was performed.” left out

[9] = tested on: lymphatic vessels and lymph nodes; test: Lymphatic vessel and lymph node imaging after ID injection; type: in vivo, BALB/c mice
Method: FIGS. 4F and 4G show cross-sectional fluorescence intensity profiles taken along red-dashed lines in (FIGS. 4D and 4E). Gaussian fits to the profiles are shown in red dashed curves. Vessel width measurements were taken from Gaussian curves. Lymphatic vessels and lymph node imaging: 3 nmol CH-RGD (FIGS. 4H-4J, 4Q, 4Y), ICG (FIGS. 4K and 4R) and IR800-RGD(s) ID into BALB/c mice (n=4 per probe). NIR-II (50 ms, 1100LP)/NIR-I (100 ms, 814-851BP) imaging was taken 1 h (FIGS. 4H-4J)/(FIG. 4K), 5 h (FIG. 4Q)/FIGS. 4R and 4S), 30 d (FIG. 4U) post ID, injection site (FIG. 4I).
IR800-RGD (3 nmol) was injected intradermally into hair-removed BALB/c mouse (n=4 per probe, male, 1 years old, weight approximately 42 g) tail base. NIR-1 imaging (100 ms, 814 approximately 851 bandpass) was taken 1 h, 3 h, 5 h post-injection. Fluorescent signal appears in mice bladder from 1 h post-injection.
as §2, with “The sample sizes of mice were selected based on previously reported studies. Mice were randomly selected from cages for all experiments. No blinding was performed.” left out

[10] = in DCE; cited from earlier work
U87MG tumor [11] = test: Subcutaneous U87MG tumor imaging, IV vs ID
Method: (§3) Then NIR-II (200 ms, 1000LP) or NIR-I (200 ms, 814-851BP) images were taken at different time points.
(§4) Nude mice were purchased from Charles River. U87MG cells were cultured in Dulbecco's modified Eagle medium containing high glucose (Gibco), which were supplemented with 10% fetal bovine serum and 1% penicillin-streptomycin. The cell was expanded in tissue culture dish and kept in a humidified atmosphere of 5% CO2 at 37° C. The medium was changed every other day. A confluent monolayer was detached with 0.5% trypsin, and dissociated into a single-cell suspension for inoculation. When the mice reached eight weeks in age, mice were inoculated with 1×10^6 U87MG cells on the right front shoulder. The tumor was allowed to grow for approximately 30 days before imaging, at which point they were approximately 30-120 mm^3 in volume.
(§5) Mice were placed on a stage with a venous catheter for IV injection of contrast and imaging agents. 0.5 mL syringe was used directly for ID injection. All NIR-II images were collected on a 640×512 pixel two-dimensional InGaAs array (Princeton Instruments, NIRvana TE 640). The excitation laser was an 808 nm laser diode at a power density of approximately 140 mW cm^−2. Emission was typically collected with 1000, 1050, 1100, 1150, 1200, 1250, 1300, 1350, 1400 nm LP filter (Thorlabs). 50 mm and 75 mm prime lens (Edmund optics) was used to obtain magnifications ranging of 1× (whole body) to 2.5× (high magnification) magnification by changing the relative position of camera, lens and animals. A binning of 1 and a variable exposure time were used for the InGaAs camera (640×512 pixel) to capture images in the NIR-II window. Images were processed with ImageJ.
(§6) All NIR-I images were collected A 1,344×1,024-pixel Hamamatsu silicon CCD detector (Hamamatsu C8484-03G02; pixel number: 1,344×1,024; readout noise: approximately 7 electron r.m.s.; dark current: 0.01 electrons per second per pixel) with an 814-851 nm bond pass filter (Edmund, #84-107). […]

U87MG tumor [12] = conditions: mouse, in vivo, iv
Method: as §3, §4, §5, §6

N=C(N)NCCC[C@@H]1NC(=O)[C@H](CCCCNC(=O)CCc2ccc(N(c3ccc(CCC(=O)O)cc3)c3ccc(-c4c5c(c(-c6ccc(N(c7ccc(CCC(=O)O)cc7)c7ccc(CCC(=O)O)cc7)cc6)c6nsnc46)N=S=N5)cc3)cc2)NC(=O)[C@@H](Cc2ccc(O)cc2)NC(=O)[C@H](CC(=O)O)NC(=O)CNC1=O [CH-RGD, CH-c(RGDyk)]
time of peak fluorescence intensity, large tumor (U87MG tumor [1]): 4 days
time tumor fluorescence detectable, smaller tumor (U87MG tumor [1]; approximately 1 mm tumor): 4 h
time tumor fluorescence detectable, larger tumor (U87MG tumor [1]; approximately 6 mm tumor): approximately 0.5 h
time tumors identified post-injection [2]: 1 days
time NPs stable in FBS before degrading into smaller NPs [3]: up to 2 weeks
time tumor still identifiable [4]: 7 days
time BAT could be visualized (bone; mouse, in vivo): 10 days
time bone signal still visualized, ex-vivo imaging (bone; mouse, in vivo): up to 45 days
time bone signal still visualized, in vivo imaging (bone; mouse, in vivo): 3 days
half-life [5]: ~184 h
half-life [6]: ~12.9 h
photostability [7]: remains stable
toxicity (NIH/3T3 cells): No obvious toxicity

CC1(C)C(/C=C/C=C/C=C/C=C2\N(CCCCS(=O)(=O)O)c3ccc4ccccc4c3C2(C)C)=[N+](CCCCS(=O)(=O)[O-])c2ccc3ccccc3c21 [ICG, indocyanine green]
blood half-life [8]: 3 to 5 min
blood vessel detection (blood vessels): only the largest brain blood vessels could be detected
SBR, subiliac lymph node ([9]; 5 h after ID injection): approximately 3
FWHM, subiliac lymph node ([9]; 5 h after ID injection, Gaussian fitting): 2.8 mm and 2.803 mm
width of lymphatic vessels detected ([9]; ID injection): greater than 400 μm

ClC1=C(/C=C/c2cc(-c3ccccc3)[s+]c3ccccc23)CCC/C1=C\C=C1/C=C(c2ccccc2)Sc2ccccc21.[O-][Cl+3]([O-])([O-])[O-] [IR-26]
quantum yield of reference fluorophore [10]: 0.05%

CH-c(RADyk) [CH-RAD]
bone accumulation (bone; after 6 h post-injection): no dramatic accumulation in bone
final concentration in bone by fluorescent intensity, relative to CH-RGD NPs (bone; mouse, in vivo): about half that of CH-RGD NPs
mean tumor fluorescent intensity (U87MG tumor [11]; IV administration): 22 k
ID versus IV injection comparison (U87MG tumor [11]; mouse, in vivo, iv): better TBR through ID injection
time of maximum tumor fluorescence and TBR (U87MG tumor [12]): 1 days
